Molecular target: T1, Human 20S immunoproteasomes (Homo sapiens, UniProt P28062+P28065+P40306)
T1 construct: purchased R&D systems
Assay: Peptide cleavage with human 20S immunoproteasomes (i20S), LC/MS-MS of fragments
Type: biochemical
Conditions: 66.7 μg/mL peptide, 37° C., 1, 2 or 4 hours
Description: Cleavage samples of peptides having 4 linked epitopes were prepared in the manner described below. Specifically, peptides having 4 linked epitopes were diluted to 66.7 μg/mL with a reaction buffer (20 mM HEPES-KOH, pH 7.8, 2 mM MgAc2, 2 mM dithiothreitol), and the resultant was dispensed into reaction tubes in amounts of 300 μL per tube. Human 20S immunoproteasomes (R&D systems) were added thereto in amounts of 2 μg per tube, the mixtures were agitated, and the resultants were then subjected to incubation with shaking at 37° C. for 1, 2, or 4 hours. […]
Subsequently, the obtained cleavage samples of the peptides having 4 linked epitopes were applied to the LC/MS-MS systems (Acquity UPLC system, Waters; Synapt G2 HDMS, Waters), so as to perform comprehensive analysis of the molecular weights of the peptide fragments. With the use of analytical software (MassLynx, ver. 4.1, SCN712, Waters), the samples were analyzed, and the peptide fragments were identified. The peptides having 4 linked epitopes were evaluated to be cleavable upon development of any of a peptide in which the epitope peptide was cleaved, a peptide comprising arginine residues added to the N terminus of the epitope peptide, or a peptide comprising an arginine dimer added to the N terminus of the epitope peptide, as a result of cleavage with immunoproteasomes.

| Sequence | cleavage determining the C terminal amino acids of the CTL epitope peptide |
| --- | --- |
| ASLDSDPWV (listed as Homo sapiens) [PEP2] | required to be located at positions nearest to the C terminus |
| ILEQSGEWWK (listed as Homo sapiens) [PEP10] | required to be located at positions nearest to the C terminus |

Source: patent US10137183B2, “Peptide compositions having 4 linked CTL epitopes and uses thereof” (TAIHO PHARMACEUTICAL CO., LTD., priority 2013, dated 2018)
